Measured values taken from paper PMC6794372.

Assays:
[1] = target: PRA, recombinant C-terminal domain of MYH9, His-SUMO tag removed; test: non-reducing SDS-PAGE and Western blot; PRA (5 mM) alone or pre-incubated with S100A4 (10 mM, 3 mM CaCl2) at 4°C for 1 h; without DTT; blot with anti-MYH9 pAb
[2] = target: PRA, recombinant C-terminal domain of MYH9, His-SUMO tag removed; test: negative-stain electron microscopy; purified PRA (5 mM) for 1 h at 4°C in 50 mM Tris, 150 mM NaCl, 10% glycerol, 3 mM CaCl2; supernatant after centrifugation, 1% uranyl acetate

With “PRA, recombinant C-terminal domain of MYH9, His-SUMO tag removed (domain or fragment)” the stoichiometry N [1] was 2 and the stoichiometry N [2] was 2.
